Test results reported in publication PMC4794788, “Cell‐free synthesis of isotopically labelled peptide ligands for the functional characterization of G protein‐coupled receptors” (FEBS Open Bio, 2015).
Entries after “also recorded” stand apart in the source; their conditions may differ.

Tests used:
[1] = biological target: T1, human complement 5a receptor (C5aR) (Homo sapiens, UniProt P21730); experiment: Specific binding of [^3H]‐C5a^CF to C5aR (optimization of translation and assay conditions)
T1 construct: 10x His (N); FLAG (N); StrepII (C); made in house; host or cells: Sf9 insect cells (recombinant baculovirus, pOET5 / flashBAC); membrane preparation
T1 sequence (P21730 1-350): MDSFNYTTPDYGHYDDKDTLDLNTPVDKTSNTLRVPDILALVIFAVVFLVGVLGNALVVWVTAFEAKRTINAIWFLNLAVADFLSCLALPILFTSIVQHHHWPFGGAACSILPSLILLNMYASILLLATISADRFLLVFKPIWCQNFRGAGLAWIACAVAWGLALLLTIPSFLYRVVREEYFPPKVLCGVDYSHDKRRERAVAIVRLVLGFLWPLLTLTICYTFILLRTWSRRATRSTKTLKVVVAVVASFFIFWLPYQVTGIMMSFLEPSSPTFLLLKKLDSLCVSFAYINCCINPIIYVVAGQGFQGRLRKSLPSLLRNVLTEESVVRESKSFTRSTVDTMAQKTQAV
Description: For the cell‐free synthesis of radioligands one amino acid was replaced with a tritiated variant depending on its abundance in the respective ligand. Complement 5a was produced in the presence of 1 μM (FM)/2.1 μM (RM) L‐[2,3‐^3H]‐proline (specific activity 55 Ci·mmol^−1, Perkin Elmer, Boston, USA). […] The cell‐free reaction was initiated omitting the labelled amino acid and incubated at 30 °C, 100 rpm for 3 h. The reaction mix was removed from the D‐tube™ dialyzer and incubated with 0.2 mL Ni‐NTA magnetic agarose beads suspension (Qiagen) per mL reaction mix for 10 min to remove undesired side products translated with endogenously present amino acids from the S30 extract. The reaction mix was removed from the magnetic beads, supplemented with 0.25 mM L‐histidine to account for potential losses in the IMAC (immobilized metal ion affinity chromatography) step and the tritium‐labelled amino acid. The feeding mix was discarded and replaced with a fresh mix containing the labelled amino acid. Reactions were incubated at 30 °C in a water bath under constant shaking overnight.
For purification of tritium‐labelled complement 5a ([^3H]‐C5a^CF), reaction and feeding mixes were pooled and applied to a 1 mL HisTrap FF column (GE Healthcare) equilibrated in buffer C^C5a using a peristaltic pump. The column was washed with 4 CV buffer C1^C5a, 4 CV buffer C2^C5a and eluted in 4 CV buffer D^C5a. […] Buffer exchange to buffers C^C5a or C^ET−1 was performed by repeated concentration and dilution in a 3 kDa MWCO concentrator (Amicon) and protein concentration was calculated using the specific activity of incorporated [^3H]‐Pro or [^3H]‐Phe residues.
The complement 5a receptor was coproduced with Gαi2 in Sf9 insect cells. The cDNA encoding the human complement 5a receptor flanked by an N‐terminal 10x His and FLAG tag and a C‐terminal StrepII tag was cloned into the pOET5 transfer vector (Oxford Expression Technologies, Oxford, UK). pOET5 contains two expression cassettes, the receptor is expressed under the control of a polyhedron promoter; Gαi2 expression is regulated by a p10 promoter. […]

[2] = biological target: C5aR; details: C5aR in native human tissues; literature comparison; cited from earlier work
Description: Table 1 Binding parameters of cell‐free synthesized radioligands | column: Literature KD [nM] || As the interaction between C5a and its receptor is mainly mediated by the disulphide bridged core region of C5a (residues 21–55, 22) and the C‐terminal region (especially Arg^74 30) the N‐terminal hexa‐histidine tag was not removed. The cell‐free synthesized ligand binds to the complement 5a receptor with a dissociation constant of 1.18 ± 0.27 nM (Fig. 4A), which corresponds to values determined by Gerard and Gerard for C5aR in native human tissues (1 nM 31, Table 1). Competition experiments with the unlabelled small molecule inverse agonist NDT 9513727 and the peptide antagonist H2N‐ChaW resu ...

B1: [^3H]‐C5a^CF: cell‐free‐synthesized tritium‐labelled complement 5a with N‐terminal hexa‐histidine tag; contains three proline residues (protein, UniProt P01031 678-751, looked up)
C5a anaphylatoxin: TLQKKIEEIAAKYKHSVVKKCCYDGACVNNDETCEQRAARISLGPRCIKAFTECCVVASQLRANISHKDMQLGR
modifications: C5a anaphylatoxin tritium label
Specific binding to the C5aR ([1]; first translation trials, produced with DsbA and IMAC purified, no pretranslation step): only low and nonsignificant binding to the C5aR; also recorded: specific binding is low and nonsignificant | Specific binding to the C5aR ([1]; pretranslation step plus NaCl in assay and wash buffer): further increases the detected specific binding | Specific binding to the C5aR ([1]; with pretranslation step to remove endogenous proline): binding specifically to the C5aR and displaying low nonspecific background; also recorded: strongly increased (dark grey bar) and statistically significant | Kd [2]: 1 nM
